Data from patent publication JP2021530247A.

How the values were obtained:
Bcl-2を発現しているライセート = Bcl-2を発現しているライセート (UniProt P10415); assay: sandwich ELISA with the commercial reagents (taken as Bcl-2/100 capture, 4D7-biotin detector), lysate
[1] = molecular target: 10ng/mLのタンパク質サンプル (rBcl-2; R&D Systems or in-house, not stated) (UniProt P10415); assay: sandwich ELISA with the commercial reagents (taken as Bcl-2/100 capture, 4D7-biotin detector), 10 ng/mL protein

**Q.** Which OD (Bcl-2を発現しているライセート) does the source give for mAb Bcl-2/100 (antibody) here?
**A.** 0.24 OD

**Q.** What about the OD [1] of the same substance?
**A.** 0.67 OD
